B1: CPEB3 Ribozyme (parent)
chain: UAACAGGGGGCCACAGCAGAAGCGUUCACGUCGCAGCCCCUGUCAGAUUCUGGUGAAUCUGCGAAUUCUGCUGUAUAUCUC

The variants in this data set derive from B1. Put plainly: self-cleavage, relative activity (ratio to wild type); higher = more cleavage; in vitro, sequencing. The method in brief: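 For each CPEB3 ribozyme variant, relative activity is its cleaved/total read fraction divided by the unmutated ribozyme's. Barcoded error-prone PCR libraries were transcribed by T7 RNA polymerase (5 hours, 37°C) and held in DNase I for 15 min before an EDTA stop, with cleavage occurring throughout. Template-switching reverse transcription and Illumina sequencing were used to read the RNAs. A 5-read minimum applied, and results are the mean of three batches.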
Regarding A20G G36A, the self-cleavage worked out at 0.36.
Consider A20G G33A, for which the self-cleavage came out at 0.35.
As to A20G G33C, the self-cleavage was 0.14.
The same measure for A20G G33U: 0.29; for A20U G52U: 0.38.
With A20U G52C, the self-cleavage was 0.27.
Regarding A20U G52A, the self-cleavage was 0.41.
A21C U25C: the self-cleavage was 0.28.
The same measure for A21C U25A: 0.28.
For the variant A20U A28U, the self-cleavage is 0.19.
The same measure for A20U A28C: 0.18.
The same measure for A20U A28G: 0.22; for A20G A47G: 0.75.
For the variant A20G A47C, the self-cleavage came to 0.44.
For the variant A20G A47U, the self-cleavage came out at 0.42.
The same measure for A21G A56U: 0.41; for A21G A56C: 0.36.
As for A21G A56G, the self-cleavage was 0.4.
In the case of A20G C40A, the self-cleavage is 0.23.
Take A20G C40U: the self-cleavage is 0.46.
Consider A20G C59G, for which the self-cleavage came to 0.45.
As for A20G C59U, the self-cleavage came out at 0.82.
Take A20U U69G: the self-cleavage was found to be 0.21.
On to A20U U69C, for which the self-cleavage was found to be 0.15.
The same measure for A20U U69A: 0.22; for A20U G63A: 0.19; for A21C A56G: 0.3.
In the case of A21C A56U it was 0.16.
For A20G U48G, the self-cleavage was 0.31.
As to A20G U48C, the self-cleavage was 0.4.
In the case of A20G U48A it was 0.38; in that of A20G G22A, 0.46.
Regarding A21C G55C, the self-cleavage is 0.21.
With A20G U26G, the self-cleavage was 0.36.
Turning to A20G U26A, the self-cleavage was determined as 0.77.
In the case of A20G U26C, the self-cleavage was 0.37.
As to A20U C34U, the self-cleavage was found to be 0.34.
A20U U78G: the self-cleavage was 0.26.
In the case of A20U U78C, the self-cleavage was 0.32.
For the variant A20U U78A, the self-cleavage is 0.43.
Regarding A20U A75U, the self-cleavage was found to be 0.28.
As for A20U A75G, the self-cleavage stood at 0.2.
In the case of A20G C68A it was 0.24; in that of A20G C68U, 0.75.
The same measure for A20G G55U: 0.62; for A20G G55A: 0.58.
Regarding A20G U58A, the self-cleavage worked out at 0.27.
As for A20G U58G, the self-cleavage stood at 0.11.
For the variant A20G U58C, the self-cleavage came out at 0.36.
Regarding A20G U66A, the self-cleavage stood at 0.33.
For A20G U66G, the self-cleavage amounted to 0.37.
Take A20G U66C: the self-cleavage came to 0.37.
For the variant A21C C81G, the self-cleavage amounted to 0.3.
On to A20U U66A, for which the self-cleavage stood at 0.3.
For A20U U66C, the self-cleavage was 0.28.
Regarding A20U U66G, the self-cleavage turned out to be 0.26.
For the variant A20U C40U, the self-cleavage is 0.34.
In the case of A20U C40G it was 0.27; in that of A20U C40A, 0.23.
As to A21C U58A, the self-cleavage is 0.16.
Regarding A20G C62G, the self-cleavage is 0.17.
In the case of A20G C62U it was 0.2.
Turning to A20G A45G, the self-cleavage stood at 0.61.
Turning to A20G A45U, the self-cleavage is 0.3.
Take A20G A45C: the self-cleavage came out at 0.24.
As for A20U C44A, the self-cleavage was 0.27.
Regarding A20G U25G, the self-cleavage came out at 0.41.
For A20G U25A, the self-cleavage came out at 0.27.
Consider A20G U25C, for which the self-cleavage stood at 0.3.
In the case of A21C U76A it was 0.1; in that of A21G A28G, 0.35.
For A21G A28C, the self-cleavage came out at 0.3.
As for A21G A28U, the self-cleavage is 0.38.
On to A21C U78C, for which the self-cleavage was 0.37.
Take A21G A57G: the self-cleavage turned out to be 0.49.
Turning to A21G A57U, the self-cleavage amounted to 0.38.
In the case of A20G C81A, the self-cleavage is 1.09.
On to A20G C81U, for which the self-cleavage is 1.09.
In the case of A20G C81G it was 0.88; in that of A20G U54A, 0.97; in that of A20G U54C, 0.88.
With A20G U54G, the self-cleavage worked out at 0.52.
The same measure for A20U U31G: 0.23.
In the case of A20U U31A it was 0.24; in that of A20U U31C, 0.26; in that of A20U C32A, 0.18.
Turning to A20U C32U, the self-cleavage worked out at 0.3.
Regarding A20U G73A, the self-cleavage was 0.67.
In the case of A20G A77C it was 0.79; in that of A20G A77U, 0.83; in that of A20G A77G, 0.91.
Regarding A20U U48A, the self-cleavage is 0.14.
As to A20U U48C, the self-cleavage was determined as 0.29.
Turning to A21C G73A, the self-cleavage is 0.35.
On to A20G A57G, for which the self-cleavage was 0.7.
In the case of A20G A57C it was 0.26.
For the variant A20G A57U, the self-cleavage was determined as 0.53.
In the case of A20G A64C, the self-cleavage was found to be 0.53.
The same measure for A20G A64G: 0.65; for A20G A64U: 0.31.
For the variant A20G G30U, the self-cleavage is 0.25.
Regarding A20G G30C, the self-cleavage came out at 0.24.
A20G G30A: the self-cleavage was 0.3.
On to A20G G24U, for which the self-cleavage is 0.14.
Turning to A20G G24A, the self-cleavage turned out to be 0.29.
For the variant A20U U60C, the self-cleavage is 0.19.
In the case of A20U U60A it was 0.41; in that of A20U U60G, 0.21.
The same measure for A20G G46U: 0.23; for A20G G46C: 0.11.
As for A20G G46A, the self-cleavage was 0.26.
For A20U C81U, the self-cleavage worked out at 0.32.
A20U U67C: the self-cleavage worked out at 0.22.
In the case of A20U U67G, the self-cleavage stood at 0.44.
On to A20U U67A, for which the self-cleavage was found to be 1.16.
Consider A20U C39A, for which the self-cleavage is 0.21.
With A20U C39G, the self-cleavage was found to be 0.27.
A21C A45U: the self-cleavage was 0.13.
On to A21C A45G, for which the self-cleavage was determined as 0.41.
A21C C38U: the self-cleavage was determined as 0.16.
Turning to A21C C38A, the self-cleavage was found to be 0.
A21C C23G: the self-cleavage was 0.16.
In the case of A20U U26C it was 0.27; in that of A20U U26A, 0.34.
As for A20U U49A, the self-cleavage was determined as 0.2.
Take A20U U49C: the self-cleavage amounted to 0.3.
With A20U U58C, the self-cleavage amounted to 0.28.
As for A20U C59G, the self-cleavage is 0.24.
Consider A20G A35G, for which the self-cleavage was 1.25.
Turning to A20G A35C, the self-cleavage turned out to be 0.65.
In the case of A20G A35U, the self-cleavage is 0.34.
In the case of A20G G52A it was 0.9; in that of A20G G52U, 1.12.
Regarding A20G U67C, the self-cleavage amounted to 1.01.
For A20G U67A, the self-cleavage came to 0.55.
On to A20G U67G, for which the self-cleavage stood at 0.25.
For A20U A35G, the self-cleavage came out at 0.87.
Consider A20U A35U, for which the self-cleavage came out at 0.22.
As to A20G A75G, the self-cleavage was 0.81.
Take A20G A75U: the self-cleavage is 0.71.
Consider A20G A28G, for which the self-cleavage worked out at 0.44.
With A20G A28U, the self-cleavage was found to be 0.58.
As for A20G A28C, the self-cleavage was 0.52.
For the variant A20G U80G, the self-cleavage is 1.14.
Take A20G U80C: the self-cleavage was 1.03.
On to A20G U80A, for which the self-cleavage came out at 1.03.
As for A20G U72C, the self-cleavage came to 0.84.
For the variant A20G U72G, the self-cleavage stood at 0.63.
For A20G U72A, the self-cleavage was 0.46.
Take A20G U76A: the self-cleavage is 1.03.
A20G U76G: the self-cleavage came to 0.99.
In the case of A20G U76C, the self-cleavage worked out at 0.92.
The same measure for A20G C29G: 0.39; for A20G C29U: 0.36.
Turning to A20G C32A, the self-cleavage was 0.27.
As for A20G C32U, the self-cleavage came out at 0.22.
Consider A20G C32G, for which the self-cleavage amounted to 0.12.
The same measure for A20G C38U: 0.37.
Regarding A20G C38G, the self-cleavage amounted to 0.12.
Consider A20G C38A, for which the self-cleavage amounted to 0.37.
Consider A20U U80C, for which the self-cleavage amounted to 0.37.
Consider A20U U80A, for which the self-cleavage is 0.45.
Consider A20G C79A, for which the self-cleavage came to 1.09.
Turning to A20G C79U, the self-cleavage is 0.85.
For the variant A20G C79G, the self-cleavage is 1.09.
On to A20U A21U, for which the self-cleavage came to 0.29.
Regarding A20U A21G, the self-cleavage is 0.23.

Source of the values: the RNAGym collection of RNA variant scans (doi:10.1093/nar/gkz1192).
